Test results taken from article PMC2396507, “Analysis of the DNA Binding Activity of BRCA1 and Its Modulation by the Tumour Suppressor p53”.
Where a chain is given by its changes, count along the chain named.

Key:
p53 (GST fusion) [1] = biological target: T1, p53 (GST fusion) (UniProt P04637 1-393); assay: EMSA; 100-500 nM GST-p53, no BRCA1; no binding at 200 nM (lane 8); 50 mM NaCl, 10 mM Tris-HCl pH 8.0, 0.5 mM EDTA, 1 mM DTT, 5% glycerol; 6% native PAGE in TAE at 4 C; incubation temperature not stated; conditions: protein: recombinant; tags: N-terminal GST, uncleaved (pGEX2TKp53); chain copies: 4; label: 5'-32P when used as probe; four-way junction
T1 sequence (P04637 whole entry, the tested form may be a part): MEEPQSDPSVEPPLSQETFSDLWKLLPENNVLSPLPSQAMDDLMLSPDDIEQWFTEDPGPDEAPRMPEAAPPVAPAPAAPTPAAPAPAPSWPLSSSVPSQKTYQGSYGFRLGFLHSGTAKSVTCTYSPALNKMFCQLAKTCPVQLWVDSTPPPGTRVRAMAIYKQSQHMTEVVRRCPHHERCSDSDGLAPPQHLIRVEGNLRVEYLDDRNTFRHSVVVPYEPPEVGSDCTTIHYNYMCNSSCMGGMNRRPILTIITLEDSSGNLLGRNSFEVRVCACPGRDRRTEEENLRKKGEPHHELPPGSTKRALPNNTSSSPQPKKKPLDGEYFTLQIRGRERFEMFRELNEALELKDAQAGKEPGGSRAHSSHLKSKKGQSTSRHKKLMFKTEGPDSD

BRCA1 230-534 [2] = biological target: T2, BRCA1 230-534 (UniProt P38398 230-534); assay: competition EMSA; 0.5 uM labelled linear duplex, 5 uM P1; 50 mM NaCl, 10 mM Tris-HCl pH 8.0, 0.5 mM EDTA, 1 mM DTT, 5% glycerol; 6% native PAGE in TAE at 4 C; incubation temperature not stated; conditions: protein: recombinant, tags: none stated (expressed from pET22b), label: 5'-32P when used as probe
T2 sequence (P38398 230-534): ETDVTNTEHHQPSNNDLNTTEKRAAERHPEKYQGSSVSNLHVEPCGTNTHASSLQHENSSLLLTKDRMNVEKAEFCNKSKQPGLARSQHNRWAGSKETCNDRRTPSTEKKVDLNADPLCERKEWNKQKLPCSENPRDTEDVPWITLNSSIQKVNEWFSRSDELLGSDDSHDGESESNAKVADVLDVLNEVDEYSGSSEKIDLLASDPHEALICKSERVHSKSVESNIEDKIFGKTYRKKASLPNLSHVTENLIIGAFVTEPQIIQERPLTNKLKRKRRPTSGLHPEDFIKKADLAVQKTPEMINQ

p53 (GST fusion) [3] = biological target: T1, p53 (GST fusion); assay: EMSA; 100-500 nM GST-p53, no BRCA1; 50 mM NaCl, 10 mM Tris-HCl pH 8.0, 0.5 mM EDTA, 1 mM DTT, 5% glycerol; 6% native PAGE in TAE at 4 C; incubation temperature not stated; conditions: protein: recombinant, tags: N-terminal GST, uncleaved (pGEX2TKp53), chain copies: 4, label: 5'-32P when used as probe
BRCA1 230-534 [4] = biological target: T2, BRCA1 230-534; assay: EMSA; 1-5 uM P1, 0.5 uM DNA; 50 mM NaCl, 10 mM Tris-HCl pH 8.0, 0.5 mM EDTA, 1 mM DTT, 5% glycerol; 6% native PAGE in TAE at 4 C; incubation temperature not stated; conditions: protein: recombinant; tags: none stated (expressed from pET22b); label: 5'-32P when used as probe; duplex
[5] = duplex with C:C mismatches (design after triple lesions)

B1: four-way junction DNA (structured_DNA)
DNA 1: AGATCTGGCGTTAGGTGATACCGATGCATC
DNA 2: CATGCATCGGTATCAGGCTTACGACTAGTG
DNA 3: CACTAGTCGTAAGCCACTCGTGCTGAATTC
DNA 4: GAATTCAGCACGAGTCCTAACGCCAGATCT
B1 was tested, and the binding result (p53 (GST fusion) [1]) was “binds” and the binding signal (BRCA1 230-534 [2]; four-way junction) was 91 % reduction of P1 bound to labelled linear duplex at equimolar competitor.

B2: C:C mismatch DNA (dsDNA)
DNA 1: CCCTCGGAGCACTGCACAACCCCTGGCCGCCG
DNA 2: CGGCGGCCAGCGGTTCTGCACTGCTCCGAGGG
In the case of B2, the binding signal (BRCA1 230-534 [2]; [5]) is reported as 70 % reduction of P1 bound to labelled linear duplex at equimolar competitor and the binding result (p53 (GST fusion) [3]; [5]) is reported as “no binding”.

B3: linear duplex DNA (dsDNA)
DNA 1: B2 DNA 1
DNA 2: B2 DNA 2 with C11G, C16G, C21G
B3: binds (BRCA1 230-534 [4]).

B4: bulge containing DNA (dsDNA)
DNA 1: CACGCTAAGTCCGATGCGTGAGATCCGC
DNA 2: GCGGATCTCACGCGTATCGGACTTAGCGTG
With B4 the binding signal (BRCA1 230-534 [2]; duplex with bulge) was 65 % reduction of P1 bound to labelled linear duplex at equimolar competitor and the binding result (p53 (GST fusion) [3]; duplex with bulge) was “no binding”.
